From US20260109761A1 (IP2IPO INNOVATIONS, published 2026)

Columns and labels:
[1] = molecular target: T1, huZIP12-ECD-GST (human, UniProt Q504Y0 24-202); assay: SPR single cycle kinetics, 2.34-600 nM huZIP12-ECD-GST, extended dissociation; re-test, lower concentrations, extended dissociation
T1 construct: also called hZIP12-ECD-GST; human ZIP12-ECD-GST; not shown: glutathione S-transferase (GST) tag
Procedure: (§1) Single Cycle Kinetics (SCK) involves first capturing the mAb onto the protein A sensor surface and then sequentially injecting a series of concentrations of huZIP12-ECD-GST over the surface starting at the lowest concentration and ending with the highest concentration. The final concentration is followed by a dissociation phase where buffer only is passed across the surface followed by regeneration, where the remaining bound huZIP12-ECD-GST is removed from the surface by injection of a 10 mM Glycine pH 1.5 and 50 mM NaOH solution. The SCK is repeated for each monoclonal antibody providing duplicate data and the kinetics of each interaction is evaluated by the Biacore software.
(§2) A selection of the higher affinity antibody variants were re-tested at a lower concentration series with an extended dissociation time with the objective of obtaining a better assessment of the binding kinetics. Referring now to FIG. 7, there are shown the data for the monoclonal antibodies that were re-tested to optimise the binding kinetic data. Once again, three antibody variants, H3_W99H_L1, H3_W99HL2 and H3_W99H_VL-par, all appear to have a higher affinity than the parent antibody. The on-rate (ka), off-rate (kd) and overall affinity measurement (KD) are all improved compared to the 51B12 VH_VL_par parent antibody.

[2] = molecular target: T1, huZIP12-ECD-GST; assay: HTRF competition: unlabelled antibody against Tb-labelled 51B12-parent on hZIP12-ECD-GST, detected with anti-GST-XL665
Procedure: Homogeneous Time Resolved Fluorescence (HTRF) assays were used to analyse the antibodies. A checkerboard assay was performed to validate the binding of the terbium labeled-antibody with hZIP12-ECD-GST. Serial dilutions (starting at 1000 ng/ml, semi-log dilutions) of Terbium-labeled 51B12-parent were incubated with serial dilutions of hZIP12-ECD-GST (starting at 5000 ng/ml, semi-log dilutions) followed by incubation with anti-GST-XL665. After excitation (320 nm), emission signals were obtained and HTRF ratio was calculated (665 nm/615 nm, Panel A). Signal/background ratios (S/B) were calculated from the HTRF ratios (0 ng/ml hZIP12-ECD-GST as background signal) and plotted against the Tb-51B12-parent concentration. The combinations 500 ng/ml hZIP12-ECD-GST+50 ng Tb-Ab, 150 ng/ml hZIP12-ECD-GST+50 ng Tb-Ab and 50 ng/ml hZIP12-ECD-GST+50 ng Tb-Ab were chosen as range for the competition assay. For the HTRF assay, 150 ng/ml hZIP12-ECD-GST+30 ng/ml Tb-51B12 was selected.

[3] = molecular target: T1, huZIP12-ECD-GST; assay: SPR single cycle kinetics (Biacore): mAb captured on protein A, huZIP12-ECD-GST injected; mean±SD of the control runs
Procedure: as §1

[4] = molecular target: T1, huZIP12-ECD-GST; assay: SPR single cycle kinetics (Biacore): mAb captured on protein A, huZIP12-ECD-GST injected at 2.34-600 nM, extended dissociation
Procedure: as §1, §2

[5] = molecular target: T1, huZIP12-ECD-GST; assay: SPR single cycle kinetics (Biacore): mAb captured on protein A, huZIP12-ECD-GST injected at 3.12-800 nM
Procedure: as §1
(§3) Referring to FIG. 6, there are shown the kinetic parameters obtained for all antibody variants when screened with the 3.12 nM to 800 nM huZIP12-ECD-GST. […] Affinity.

[6] = molecular target: T1, huZIP12-ECD-GST; assay: SPR single cycle kinetics, mAb captured on protein A, 3.12-800 nM huZIP12-ECD-GST
Procedure: as §1, §3

T1 sequence (Q504Y0 24-202): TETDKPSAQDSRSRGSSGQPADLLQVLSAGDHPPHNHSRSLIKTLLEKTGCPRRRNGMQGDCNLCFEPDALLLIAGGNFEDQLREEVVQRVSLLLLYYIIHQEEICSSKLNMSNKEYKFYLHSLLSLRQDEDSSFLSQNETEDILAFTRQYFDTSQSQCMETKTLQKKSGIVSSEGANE

Kd [1]	IC50 (read off the curve) [2]	Kd [3]	koff [3]	Kd [4]	koff [4]	kon [4]	Kd [5]	koff [5]	kon [5]	Binder	Kd [6]
1.1 nM	~0.2 µg/mL	0.969 nM	2.66e-05 s⁻¹	1.09 nM	3e-05 s⁻¹	27500 M⁻¹ s⁻¹	–	–	–	51B12 parent (antibody, V domains shown, Fc null human IgG1 / human kappa) VH: QVQLVESGGGVVQPGRSLRLSCAASGFTFSDYGMHWVRQAPGKGLEWVAYISSGGTTIYYADTVKGRFTISRDNSKNTLYLQMNSLRAEDTAVYYCARWTNLYAMDYWGQGTTVTVSS VL: DIVLTQSPDSLAVSLGERATINCRASKSVSTSGYSYMHWYQQKPGQPPKFLIYLASNLESGVPDRFSGSGSGTDFTLTISSLQAEDVAVYYCQHSREVPYTFGGGTKVEIKR	–
–	–	–	–	0.829 nM	3.26e-05 s⁻¹	39400 M⁻¹ s⁻¹	1.09 nM	4.01e-05 s⁻¹	36700 M⁻¹ s⁻¹	H2_Y60K_VL-par (antibody, V domains shown, Fc null human IgG1 / human kappa) VH: QVQLVESGGGVVQPGRSLRLSCAASGFTFSDYGMHWVRQAPGKGLEWVAYISSGGTTIYKADTVKGRFTISRDNSKNTLYLQMNSLRAEDTAVYYCARWTNLYAMDYWGQGTTVTVSS VL: DIVLTQSPDSLAVSLGERATINCRASKSVSTSGYSYMHWYQQKPGQPPKFLIYLASNLESGVPDRFSGSGSGTDFTLTISSLQAEDVAVYYCQHSREVPYTFGGGTKVEIKR	–
–	–	–	–	0.339 nM	3.16e-05 s⁻¹	93100 M⁻¹ s⁻¹	0.472 nM	3.98e-05 s⁻¹	84300 M⁻¹ s⁻¹	H3_W99H_L2 (antibody, V domains shown, Fc null human IgG1 / human kappa) VH: QVQLVESGGGVVQPGRSLRLSCAASGFTFSDYGMHWVRQAPGKGLEWVAYISSGGTTIYYADTVKGRFTISRDNSKNTLYLQMNSLRAEDTAVYYCARHTNLYAMDYWGQGTTVTVSS VL: DIVLTQSPDSLAVSLGERATINCRASKSVSTSGYSYMHWYQQKPGQPPKFLIYLASNKESGVPDRFSGSGSGTDFTLTISSLQAEDVAVYYCQHSREVPYTFGGGTKVEIKR	~0.5 nM
–	–	–	–	0.604 nM	2.25e-05 s⁻¹	37200 M⁻¹ s⁻¹	0.957 nM	3.7e-05 s⁻¹	38600 M⁻¹ s⁻¹	H2_Y60K_L1 (antibody, V domains shown, Fc null human IgG1 / human kappa) VH: QVQLVESGGGVVQPGRSLRLSCAASGFTFSDYGMHWVRQAPGKGLEWVAYISSGGTTIYKADTVKGRFTISRDNSKNTLYLQMNSLRAEDTAVYYCARWTNLYAMDYWGQGTTVTVSS VL: DIVLTQSPDSLAVSLGERATINCRASKSVSTQGYSYMHWYQQKPGQPPKFLIYLASNLESGVPDRFSGSGSGTDFTLTISSLQAEDVAVYYCQHSREVPYTFGGGTKVEIKR	–
–	–	–	–	0.792 nM	3.3e-05 s⁻¹	41600 M⁻¹ s⁻¹	0.791 nM	3.47e-05 s⁻¹	43900 M⁻¹ s⁻¹	H2_T57H_VL-par (antibody, V domains shown, Fc null human IgG1 / human kappa) VH: QVQLVESGGGVVQPGRSLRLSCAASGFTFSDYGMHWVRQAPGKGLEWVAYISSGGTHIYYADTVKGRFTISRDNSKNTLYLQMNSLRAEDTAVYYCARWTNLYAMDYWGQGTTVTVSS VL: DIVLTQSPDSLAVSLGERATINCRASKSVSTSGYSYMHWYQQKPGQPPKFLIYLASNLESGVPDRFSGSGSGTDFTLTISSLQAEDVAVYYCQHSREVPYTFGGGTKVEIKR	–
–	–	–	–	1.34 nM	3.68e-05 s⁻¹	27500 M⁻¹ s⁻¹	1.07 nM	3.16e-05 s⁻¹	29600 M⁻¹ s⁻¹	H2_T63Y_L1 (antibody, V domains shown, Fc null human IgG1 / human kappa) VH: QVQLVESGGGVVQPGRSLRLSCAASGFTFSDYGMHWVRQAPGKGLEWVAYISSGGTTIYYADYVKGRFTISRDNSKNTLYLQMNSLRAEDTAVYYCARWTNLYAMDYWGQGTTVTVSS VL: DIVLTQSPDSLAVSLGERATINCRASKSVSTQGYSYMHWYQQKPGQPPKFLIYLASNLESGVPDRFSGSGSGTDFTLTISSLQAEDVAVYYCQHSREVPYTFGGGTKVEIKR	–
–	–	–	–	0.971 nM	4.18e-05 s⁻¹	43100 M⁻¹ s⁻¹	0.743 nM	3.3e-05 s⁻¹	44400 M⁻¹ s⁻¹	H2_T57H_L1 (antibody, V domains shown, Fc null human IgG1 / human kappa) VH: QVQLVESGGGVVQPGRSLRLSCAASGFTFSDYGMHWVRQAPGKGLEWVAYISSGGTHIYYADTVKGRFTISRDNSKNTLYLQMNSLRAEDTAVYYCARWTNLYAMDYWGQGTTVTVSS VL: DIVLTQSPDSLAVSLGERATINCRASKSVSTQGYSYMHWYQQKPGQPPKFLIYLASNLESGVPDRFSGSGSGTDFTLTISSLQAEDVAVYYCQHSREVPYTFGGGTKVEIKR	–

Binder	Kd [1]	IC50 (read off the curve) [2]	Kd [3]	koff [3]	Kd [4]	koff [4]	kon [4]	Kd [5]	koff [5]	kon [5]	Kd [6]
H3_W99H_VL-par (antibody, V domains shown, Fc null human IgG1 / human kappa) VH: QVQLVESGGGVVQPGRSLRLSCAASGFTFSDYGMHWVRQAPGKGLEWVAYISSGGTTIYYADTVKGRFTISRDNSKNTLYLQMNSLRAEDTAVYYCARHTNLYAMDYWGQGTTVTVSS VL: DIVLTQSPDSLAVSLGERATINCRASKSVSTSGYSYMHWYQQKPGQPPKFLIYLASNLESGVPDRFSGSGSGTDFTLTISSLQAEDVAVYYCQHSREVPYTFGGGTKVEIKR	–	–	–	–	0.322 nM	3.29e-05 s⁻¹	102000 M⁻¹ s⁻¹	0.481 nM	4.67e-05 s⁻¹	97100 M⁻¹ s⁻¹	~0.5 nM
H2_T63Y_VL-par (antibody, V domains shown, Fc null human IgG1 / human kappa) VH: QVQLVESGGGVVQPGRSLRLSCAASGFTFSDYGMHWVRQAPGKGLEWVAYISSGGTTIYYADYVKGRFTISRDNSKNTLYLQMNSLRAEDTAVYYCARWTNLYAMDYWGQGTTVTVSS VL: DIVLTQSPDSLAVSLGERATINCRASKSVSTSGYSYMHWYQQKPGQPPKFLIYLASNLESGVPDRFSGSGSGTDFTLTISSLQAEDVAVYYCQHSREVPYTFGGGTKVEIKR	–	–	–	–	0.868 nM	2.51e-05 s⁻¹	28900 M⁻¹ s⁻¹	1.03 nM	3.04e-05 s⁻¹	29600 M⁻¹ s⁻¹	–
